Results reported in patent publication US20110274704A1.

Legend:
[1] = biological target: CD20 on lymphoma and leukemia cell lines (human) (UniProt P11836); assay: cell-based or functional assay
[2] = biological target: fusion protein containing the A3B3 domain of CEA (UniProt P06731); assay: competitive ELISA on coated A3B3 fusion protein; competitor HRP-conjugated hMN-14 IgG (1 nM)

CD20 on lymphoma and leukemia cell lines (human), sequence (P11836 whole entry, the tested form may be a part): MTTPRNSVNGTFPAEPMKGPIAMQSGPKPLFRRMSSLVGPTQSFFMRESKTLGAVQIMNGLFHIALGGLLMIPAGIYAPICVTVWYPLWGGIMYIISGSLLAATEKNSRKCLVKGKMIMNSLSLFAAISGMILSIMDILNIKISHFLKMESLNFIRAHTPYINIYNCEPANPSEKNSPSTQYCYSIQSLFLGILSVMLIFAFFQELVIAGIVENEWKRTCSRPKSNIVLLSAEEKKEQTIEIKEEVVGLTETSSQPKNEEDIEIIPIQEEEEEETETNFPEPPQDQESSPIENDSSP

Row | Substance | EC50, in vitro cytotoxicity, Daudi and Ramos cells [1] | EC50, in vitro cytotoxicity, Jeko-1 cells [1] | fold of avidity against TF1 [2]
1 | 20-Rap (antibody) | 0.0001 µM | 20 µM | –
2 | TF2 (bispecific antibody) | – | – | 2 fold
